The values that follow come from the supplement of paper PMC12042874.

± gives the uncertainty stated by the source.

The data set is described as follows: amyloid nucleation score (Sup35N fusion, yeast selection) (log enrichment); library NNK1; higher = more nucleation; inactive = no reads after selection. In outline: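 Growth for 7 days at 30°C on medium lacking adenine and uracil followed a 24-hour induction with 100 μM copper sulfate of psi-negative yeast expressing peptides of 20 random codons fused to Sup35N. Input and output plasmid inserts were sequenced with Illumina, and sequences with under 100 input reads were excluded. Nucleation score is the DiMSum log enrichment of output over input reads, centred on the mode score of non-aggregating sequences.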
As to LKVERMTRKPHGVELLSFRR, the amyloid nucleation score is -0.163 ± 0.97.

LKVLYLRSDRVSWVSKPLVI registered an amyloid nucleation score of -0.405 ± 0.87. As for LKVPCL, the figure is -0.067 ± 0.59; as for LKYCYGTT, 0.171 ± 0.29; as for LLAVAGPLLWLYRYMISFIS, 0.071 ± 0.97. To LLCYCVAELLDNTRRAT belongs 0.328 ± 0.57; to LLDARWRTYSFRVAMLWGRR, “inactive”; to LLDKTTVKVILCLFNDTINL, 7.855 ± 0.043.

In the case of LLEALQNLGRLLITTPLVV, the amyloid nucleation score is 0.475 ± 0.84.

LLFCQNDSGVVRLMLTVFLR gave an amyloid nucleation score of -0.791 ± 1.2. To LLFLYSLNLSRHLY belongs 0.71 ± 1.1; to LLGMRFSVVPSPATFGWTHF, 1.81 ± 0.18. Consider LLHCKVICRRCCVIWSSCSI, for which the amyloid nucleation score amounted to 2.09 ± 0.46. As for LLICADVITFCFECTMRTGF, the figure is 4.13 ± 0.064; as for LLIDSPCNWCTRGRSCKFSY, “inactive”; as for LLIRLLGQ, “inactive”. With LLISDAVVYLFWTPENHSTW, the amyloid nucleation score stood at 1.2 ± 0.56. For the substance LLIWRN, the amyloid nucleation score worked out at 0.995 ± 0.62.

LLLFFNYNLSVIWWVYGRKS registered an amyloid nucleation score of 1.23 ± 0.47.

Consider LLLLAIIDRYSIWK, for which the amyloid nucleation score was -0.183 ± 0.41. As for LLLLVRFYGSGSPHSGAEPI, the figure is -1.14 ± 1.5; as for LLLSSLTDFHVVDRLIKQAW, -0.003 ± 0.41; as for LLNMCNNESTLERNPF, 1.93 ± 0.37.

The substance LLNRSALCWMCCTKDSWLLT came in with an amyloid nucleation score of 7.073 ± 0.061. LLPLLSMGRTPLRCKPMASS had an amyloid nucleation score of 0.058 ± 0.3. As for LLQGCNEVPVRKSKVVSSVR, the figure is 0.441 ± 0.24; as for LLRVVKHCLCWNRYNDSDAG, 1.05 ± 0.34. To LLRWLRTVVSGGCVSVNLVE belongs 0.034 ± 0.28; to LLSATFLLMSTCY, 0.34 ± 0.29. To LLSGNGQRLSSEQTCRELVG belongs -0.727 ± 0.28; to LLSHQVTPSGRYSFSLCKSW, 0.873 ± 0.84.

On to LLSPFCVVLGSSTTGTMVNM, for which the amyloid nucleation score worked out at 0.287 ± 0.62. As for LLWNDCGFLRWASGH, the figure is 2.59 ± 0.11. To LMDNCVRR belongs -1.06 ± 1.9; to LMEFHLYQMYSLRLVARRWW, 1.32 ± 0.38. To LMFAISKIKIF belongs “inactive”. LMKCCNVMGCGDDA displayed an amyloid nucleation score of 2.45 ± 0.15.

LMLERFRLLYNEDFGGKVMF showed an amyloid nucleation score of 0.448 ± 0.47.

Substance LMLPFVYS showed an amyloid nucleation score of 0.392 ± 0.37.

In the case of LMLVHRVF, the amyloid nucleation score is -0.034 ± 0.51. For the substance LMNICRNVARG, the amyloid nucleation score was -0.876 ± 0.71.

As to LMPPSG, the amyloid nucleation score came to 0.072 ± 0.69. To LMSYSECQLSLNAYRGGRVE belongs 0.373 ± 0.55; to LMWCGSANMY, 0.632 ± 1.2; to LNALFYLKWALRRWSRKYCE, 1.39 ± 0.79. As for LNCCYKKNVGIQDMRTMDIQ, the figure is 0.247 ± 1.1; as for LNFDNFLLMWTMLVNRIISD, 0.574 ± 0.97.

The substance LNLLYASWYYSFGVR came in with an amyloid nucleation score of -0.194 ± 0.24. To LNMLMMVGVWGYFVITIHTI belongs 0.68 ± 0.71; to LNNTVEDPA, 0.892 ± 0.92.

In the case of LNRVFEDHWVLTLAVLHTSR, the amyloid nucleation score entry was “inactive”. To LNSSIYDLSHTVAGCHPALT belongs -0.293 ± 1.3. In the case of LNVGV, the amyloid nucleation score is -0.215 ± 1.7. As for LNVGVLGGRLLSGALVNSTM, the figure is 0.396 ± 0.65; as for LNWNCITCTLNFVKYVTDCR, 7.866 ± 0.046; as for LNYIQNC, “inactive”. Take LNYSWDWLVVCIVANVRTYD: the amyloid nucleation score is 2.22 ± 0.12. To LPCKIKKWIHWEFRSEFN belongs -2.06 ± 2.7; to LPGVFAPCSDYLMVMDVGHS, -0.409 ± 0.35.

Regarding LPIRASGNHL, the amyloid nucleation score came to 0.495 ± 0.79. As for LPSDSFAVI, the figure is 0.483 ± 0.81; as for LPTSTVSCQNWDTLLTLCSG, -0.094 ± 0.77; as for LPWRRGWSFSTLVSLTGLSA, 0.353 ± 0.31. To LQAAGLRFGRICLFLDK belongs -0.259 ± 1.2; to LQDFGKHPTLRCTVYRLHRP, -1.02 ± 0.83; to LQILLLVSCLSQYAANKRRA, -0.291 ± 0.57.

In turn, LQLCLPVFNHVMHVNWMRFY showed an amyloid nucleation score of -0.837 ± 2.4. As for LQRCAKLYSMSILTYAIIRF, the figure is -0.525 ± 0.28; as for LQRLY, -0.251 ± 0.35.

The substance LQSAVRWWHFDSRLGEAKLM had an amyloid nucleation score of 0.902 ± 0.69.

The substance LQSFVLLGDRIYRRFCVLMN displayed an amyloid nucleation score of 0.048 ± 1.2. To LQTLGNWLHFKYAYWLLSNL belongs -0.55 ± 0.72. In the case of LQTSRHFSLRWWCMYSWGNS, the amyloid nucleation score came out at 1.41 ± 0.51. To LQYAKRDDIDSDVLLYKMYG belongs 0.203 ± 0.97; to LRARMCYRAPLRFR, -0.257 ± 1.7; to LRARVGGVEFVYSVQRRLKP, -0.167 ± 0.62. As for LRASAWHQFHFAV, the figure is 0.376 ± 0.78; as for LRFLWRRRS, 0.949 ± 0.28. To LRFMCRYFLRQRNYEPWFYG belongs 0.1 ± 0.55; to LRGRSPNYEALKMLYFFLLV, 0.314 ± 1.4. The substance LRHFSRSF had an amyloid nucleation score of 0.16 ± 0.29. LRKNSPTFRGSPCQQWYVER registered an amyloid nucleation score of 1.27 ± 0.56. To LRKVGQGI belongs 0.066 ± 0.67. As for LRMFFDSTTILKLYERSWNI, the figure is 0.777 ± 1.2.

Turning to LRNVVSYREDFECSWGCHRG, the amyloid nucleation score came to 0.724 ± 0.32. To LRRGKLDLDHPLVNKWRKKG belongs -0.005 ± 0.67; to LRSEEVFTHMRAGVAKSFWD, 0.461 ± 0.72; to LRVKSSGDLSLSGSFDCDV, 0.199 ± 0.64. To LRVMKKRLVDATHNFVPVAN belongs 4.33 ± 0.075. As for LRVPRCMIKRLHYGICPSSG, the amyloid nucleation score turned out to be 0.094 ± 0.91. To LRYAG belongs -0.87 ± 0.53; to LRYIMPDND, -1.09 ± 1.5. To LSCWLYNPGYCVSVEFC belongs 6.906 ± 0.056. Substance LSFEIFMNVTRPSICHKVSL displayed an amyloid nucleation score of -2.04 ± 2.4.

As for LSFLLEASNHDWDGSLG, the amyloid nucleation score result is “inactive”. As for LSFLSSVSDLIKLSSIFYGY, the figure is -0.264 ± 0.37; as for LSGERNVMCSVWACLGRDYR, 8.102 ± 0.047. Substance LSHRGVLVAMDRTMYPM showed an amyloid nucleation score of -0.621 ± 0.42. Turning to LSISRCSGRAV, the amyloid nucleation score entry is “inactive”. To LSKCTKRKFTMCWDSLVRK belongs 0.779 ± 0.26; to LSKVVFGLWFCT, 0.299 ± 0.34; to LSLKASDMRIGRYRSDKATF, 1.18 ± 0.79.

In the case of LSLSLMLGDIPSTIMRGCFR, the amyloid nucleation score result was “inactive”. To LSNYYHDGILVIMRSATNDH belongs 1.61 ± 0.41. Turning to LSPSSMN, the amyloid nucleation score entry is “inactive”. As for LSRFRLFSYMYVLHKCNMGM, the figure is -0.777 ± 1.2; as for LSRTKGYC, 0.558 ± 0.33.

For the substance LSSDADFKNNSLFRESDKYV, the amyloid nucleation score was -0.297 ± 0.22.

LSSTLCSIVF gave an amyloid nucleation score of 0.051 ± 0.57. To LSTKKTQTMRRVW belongs 0.404 ± 0.44; to LSTPYHQWLLAGRSRWASRK, 0.609 ± 0.49; to LTEIVYTVGAEGTLWRSGAA, 0.298 ± 0.45. To LTGCLNEYGVSNFMEVRVFR belongs -1.88 ± 2.7. In turn, LTGRVFRSYRYGCTGQIAVD came in with an amyloid nucleation score of -0.624 ± 0.56.

With LTISTYSCWGEF, the amyloid nucleation score is 0.456 ± 0.66. To LTMLYMLLCDNSLMRDILPD belongs 0.951 ± 0.88; to LTRDEGPIEDKNVEARFRVS, 0.098 ± 0.31. As for LTRDLMCEPVLCGLLPVSGR, the figure is 0.314 ± 1.4; as for LTRGQSLPMCATSVFEEYSH, 0.325 ± 0.43; as for LTRVWSVTCVCSFGRPYK, 2.13 ± 0.27. As to LTSCASLWEDRVVLSCLPGG, the amyloid nucleation score entry was “inactive”.

LTSTDISMGRCAVHQSYLFK: the amyloid nucleation score was 2.69 ± 0.29. To LTVGYSRYIPVRYGF belongs -1.08 ± 0.43; to LTVVTAAFRATMVEHIL, -0.368 ± 0.4; to LVALPMWIF, 0.402 ± 0.41.

LVCSLTDNYDEE: the amyloid nucleation score was determined as 0.169 ± 0.97. As for LVFLTYSSASARIPLRI, the figure is 0.267 ± 0.29; as for LVGFSVSYKVSENFCSTL, “inactive”. Regarding LVGMCNHTYDS, the amyloid nucleation score was 0.998 ± 0.66. Turning to LVGTTRLMRFWSRVMT, the amyloid nucleation score is -0.171 ± 0.41. As for LVISSRREKR, the figure is 0.009 ± 0.57; as for LVLSVFWRNVVWAINLAVVS, -0.521 ± 0.31. To LVMTNIVLRSVKERVHRLLR belongs -0.46 ± 0.81; to LVPNLLVHGVYY, -2.39 ± 2.4; to LVPVWARLR, -0.686 ± 0.65. On to LVRLVVLLKEPGEDRFIIEH, for which the amyloid nucleation score was -0.427 ± 0.79. As for LVRRFLSWRIQSLDPIKK, the figure is -0.425 ± 0.76; as for LVRWSLLRFFL, 1.89 ± 0.59. Substance LVSMVWLPM came in with an amyloid nucleation score of 0.167 ± 0.84. As for LVTDPWISTLSSFHLWGGFM, the figure is 0.887 ± 0.7.
